Test results as given in paper PMC10174534.

Biological target: SARS-CoV-2 ΔN135 spike (S) protein, soluble prefusion-stabilised ectodomain trimer (SARS-CoV-2) (UniProt P0DTC2)
Experiment: SEC-MALS

In the case of “SARS-CoV-2 ΔN135 spike (S) protein, soluble prefusion-stabilised ectodomain trimer (from UniProt P0DTC2 22-1208) (natural protein)”, the stoichiometry N is reported as 3.
